Measurements published in US20200277375A1 (ULTRAHUMAN FOUR, published 2020).

B1: G-B6 in human IgG1null format (antibody, V domains shown)
VH: EVQLVQSGAEVKKPGESLKISCKGSGYSFTNYYIFWVRQMPGKGLEWIGDINPVNGDTNFSPSFQGQVTISADKSISTAYLQWSSLKASDTAMYYCARGGYTMDKWGQGTLVTVSS
VL: DIVMTQSPLSLPVTPGEPASISCRSSQSLVHSNGYTYLHWYLQKPGQSPQLLIYKGSYRASGVPDRFSGSGSGTDFTLKISRVEAEDVGVYYCSQNTQTPRTFGQGTKVEIK
notes: IgG1null (L234A/L235A/G237A), kappa
B2: A-D5.4 in human IgG1null format (antibody, V domains shown)
VH: EVQLVQSGAEVKKPGESLKISCKGSGYTFTNYYIFWVRQMPGKGLEWMGIINPVDGDTNYNPSFQGQVTISADKSISTAYLQWSSLKASDTAMYYCARGGYTMDRWGQGTLVTVSS
VL: DIVMTQSPLSLPVTPGEPASISCRSSQSLLHSNGYNYLHWYLQKPGQSPQLLIYKVSNRLSGVPDRFSGSGSGTDFTLKISRVEAEDVGVYYCFQNTHTPRTFGQGTKVEIK
notes: Designer clone from A-D5; IgG1null; also called A-D.4
B3: A-D5 in human IgG1null format (antibody, V domains shown)
VH: EVQLVQSGAEVKKPGESLKISCKGSGYTFTNYYIFWVRQMPGKGLEWMGIINPVDGDTNYNPSFQGQVTISADKSISTAYLQWSSLKASDTAMYYCARGGYTMDRWGQGTLVTVSS
VL: DIVMTQSPLSLPVTPGEPASISCRSSQSLLHSNGYTYLHWYLQKPGQSPQLLIYKVSNRLSGVPDRFSGSGSGTDFTLKISRVEAEDVGVYYCFQNTHTPRTFGQGTKVEIK
notes: IgG1null (IgG1 L234A/L235A/G237A), kappa; also called IgG1 A-D5N
B4: D-H3 in human IgG1null format (antibody, V domains shown)
VH: EVQLVQSGAEVKKPGESLKISCKGSGYSFTNYYIFWVRQMPGKGLEWMGDINPVNGDTNYSPSFQGQVTISADKSISTAYLQWSSLKASDTAMYYCARGGYTPDYWGQGTLVTVSS
VL: DIVMTQSPLSLPVTPGEPASISCRSSQSLLHSNGYNYLHWYLQKPGQSPQLLIYKGSNRFSGVPDRFSGSGSGTDFTLKISRVEAEDVGVYYCSQNLHVPRTFGQGTKVEIK
notes: as for B1
B5: A-D5.8 in human IgG1null format (antibody, V domains shown)
VH: EVQLVQSGAEVKKPGESLKISCKGSGYTFTNYYIFWVRQMPGKGLEWMGIINPVDGDTNYNPSFQGQVTISADKSISTAYLQWSSLKASDTAMYYCARGGYTMDRWGQGTLVTVSS
VL: DIVMTQSPLSLPVTPGEPASISCRSSQSLLHSQGYTYLHWYLQKPGQSPQLLIYKVSNRLSGVPDRFSGSGSGTDFTLKISRVEAEDVGVYYCFQNTHTPRTFGQGTKVEIK
notes: Designer clone from A-D5; IgG1null
B6: F-E7 in human IgG1null format (antibody, V domains shown)
VH: EVQLVQSGAEVKKPGESLKISCKGSGYSFTNYYIFWVRQMPGKGLEWMGIINPVNGDTNYNPSFQGQVTISADKSISTAYLQWSSLKASDTAMYYCARGGYTMGKWGQGTLVTVSS
VL: DIVMTQSPLSLPVTPGEPASISCRSSQSLVHSNGNTYLDWYLQKPGQSPQLLIYKGSYRFSGVPDRFSGSGSGTDFTLKISRVEAEDVGVYYCSQATHTPRTFGQGTKVEIK
notes: as for B1
B7: A-D5.2 in human IgG1null format (antibody, V domains shown)
VH: EVQLVQSGAEVKKPGESLKISCKGSGYSFTNYYIFWVRQMPGKGLEWMGIINPVDGDTRYNPSFQGQVTISADKSISTAYLQWSSLKASDTAMYYCARGGYTMDRWGQGTLVTVSS
VL: DIVMTQSPLSLPVTPGEPASISCRSSQSLLHSNGYTYLHWYLQKPGQSPQLLIYKVSNRLSGVPDRFSGSGSGTDFTLKISRVEAEDVGVYYCFQNTHTPRTFGQGTKVEIK
notes: as for B5
B8: MH (Maximally Humanized) in human IgG1null format (antibody, V domains shown)
VH: EVQLVQSGAEVKKPGESLKISCKGSGYSFTNYYIFWVRQMPGKGLEWIGIINPVDGDTRYSPSFQGQVTISADKSISTAYLQWSSLKASDTAMYYCARGGYTMDIWGQGTLVTVSS
VL: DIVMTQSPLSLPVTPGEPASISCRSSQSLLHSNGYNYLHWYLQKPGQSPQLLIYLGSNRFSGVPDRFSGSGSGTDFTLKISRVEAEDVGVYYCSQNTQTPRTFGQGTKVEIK
notes: Designer clone; IgG1null, kappa; also called designer clone MH

Experiments:
[1] = biological target: T1, cynomolgus monkey CD47 on transfected CHO-K1 cells (cynomolgus monkey, UniProt A0A5F8AK49 19-323 (rhesus entry)); experiment: flow cytometry, cyno CD47-transfected CHO-K1, FIG. 6
T1 construct: whole, on cells; also called cyno CD47+ cells
Method: (§1) FIG. 6A-FIG. 6C. Flow cytometric binding to human and cyno CD47+CHO-K1 cells. Commercial anti-CD47 antibody MS1991, human IgG1 (“I IgG1”) and IgG4 (“I IgG4”) Isotype controls, lead library-derived IgGs in both IgG1null (“IgG1N”) and IgG4(S228P) formats were examined for specific binding on cyno-transfected CHO-K1 cells (FIG. 6A), human-transfected CHO-K1 cells (FIG. 6B), and wild type (wt, i.e. untransfected) CHO-K1 cells (FIG. 6C). IgGs were tested at concentrations ranging from 24-100,000 ng/ml. Concentration-dependent binding was observed against both human and cyno cell lines for all CD47-specific antibodies but not Isotype controls.
(§2) Antibodies to CD47 were analysed for concentration-dependent binding at the cell surface via flow cytometry. CHO-K1 cells were stably transfected with either human, mouse or cyno CD47 full-length cDNAs. Anti-CD47 IgGs mVH/mVL, VH-A1/VL-B1, A-D5, G-B6, F-E7 and D-H3, and an isotype control IgG1 were then all tested in IgG1null and IgG4(S228P) formats, alongside a commercial mouse anti-human CD47 monoclonal MS1991, over a concentration range of 100,000-24 ng/ml for binding to human, cyno or wild type control (‘wt’, i.e. untransfected) CHO-K1.

[2] = biological target: T2, human CD47 on cells (human CD47-transfected CHO-K1; HL60) (human, UniProt Q08722 19-323); experiment: flow cytometry, human CD47-transfected CHO-K1, FIG. 6
T2 construct: whole, on cells; also called human CD47+ cells; human CD47+HL60 cells
Method: as §1, §2

[3] = biological target: T3, mouse CD47-Fc (mouse, UniProt Q61735 19-140, limits assumed); experiment: direct specificity ELISA, IgG 1 µg/ml, FIG. 5
T3 construct: Recombinant CD47-Fc; also called mCD47-Fc; mCD37-Fc [sic]; not shown: Fc part
T3 sequence (looked up): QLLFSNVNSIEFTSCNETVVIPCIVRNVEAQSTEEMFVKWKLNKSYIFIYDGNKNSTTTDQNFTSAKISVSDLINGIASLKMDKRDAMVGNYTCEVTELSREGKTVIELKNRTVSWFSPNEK
Description: (§3) FIG. 5A-FIG. 5G. Binding specificity analyses for prioritized lead clones. Off-target homologue binding risk for mVH/mVL in IgG1 (FIG. 5A) and IgG1null (FIG. 5B) format and library-derived leads A-D5 (FIG. 5C), VH-A1/VL-B1 (FIG. 5D), F-E7 (FIG. 5E), D-H3 (FIG. 5F), and G-B6 (FIG. 5G) in IgG1null format was examined by direct ELISA on CD47-Fc orthologs and a panel of 14 human immunoglobulin superfamily proteins as labelled on each X-axis (“B” refers to blank). Binding to human, cyno and murine CD47-Fcs (h/c/mCD47-Fc) was performed at an IgG concentration of 1 μg/ml. Binding to all other proteins was performed at an IgG concentration of 10 μg/ml.
(§4) To ensure that that lead clones had not suffered from loss of target specificity during the mutation and reselection process; lead and control IgG1 clones were tested for binding to a panel of 14 purified human proteins from the immunoglobulin superfamily (FIG. 5).

[4] = biological target: T4, cynomolgus monkey CD47-Fc (cynomolgus monkey, UniProt A0A2K5X523 19-139); experiment: direct specificity ELISA, IgG 1 µg/ml, FIG. 5
T4 construct: Recombinant CD47-Fc; also called cyno CD47-Fc; cCD47-Fc; not shown: Fc part
Description: as §3, §4

[5] = biological target: T5, human CD47-Fc (human, UniProt Q08722 19-139); experiment: direct specificity ELISA, IgG 1 µg/ml, FIG. 5
T5 construct: Recombinant CD47-Fc; also called hCD47-Fc; not shown: Fc part
Description: as §3, §4

[6] = biological target: T3, mouse CD47-Fc; experiment: direct specificity ELISA, IgG 10 µg/ml, FIG. 13
[7] = biological target: T4, cynomolgus monkey CD47-Fc; experiment: direct specificity ELISA, IgG 10 µg/ml, FIG. 13
[8] = biological target: T5, human CD47-Fc; experiment: direct specificity ELISA, IgG 10 µg/ml, FIG. 13
[9] = biological target: T5, human CD47-Fc; experiment: direct titration ELISA, FIG. 9A
Method: (§5) FIG. 9A-FIG. 9C. Direct titration ELISA for designer IgGs binding to human, mouse and cyno CD47-Fc proteins. Chimeric anti-CD47 (mVH/mVL), designer A-D5-derived clones in human IgG1null format were titrated (in μg/ml) in a direct binding ELISA against human (FIG. 9A), cyno (FIG. 9B) and mouse (FIG. 9C) CD47-Fc proteins. […] In the figure legend, “IgG1NI” refers to IgG1 null isotype.
(§6) To coat Greiner Bio-One High bind ELISA plates, target proteins were diluted to 1 μg/ml in carbonate buffer and added at 100 μl per well, at 4° C., o/n. Coated plates were washed 3× with PBS pH7.4, blocked with 1% BSA in PBS (380 μl/well) for 1 hr at RT, then washed 3× with PBS-Tween 20 (PBST). CD47 antibodies (100 μl/well; diluted in PBST) were then added and then incubated 1 hr at RT. Plates were then washed 3× with PBST and goat anti-human kappa chain-HRP added (100 μl/well) at RT, for 1 hr. Plates were then washed 3× with PBST and twice with PBS before the addition of 100 μl TMB per well. Reactions were stopped by adding 100 μl 2M H₂SO₄/well and OD was read on a plate reader at 450 nm.

[10] = biological target: T3, mouse CD47-Fc; experiment: direct titration ELISA, FIG. 9C
Method: as §5, §6

[11] = biological target: T3, mouse CD47-Fc; experiment: direct titration ELISA, FIG. 3
Method: (§7) FIG. 3A-FIG. 3H. Direct titration ELISA for IgG binding to human, mouse and cyno CD47-Fc proteins. Chimeric anti-CD47 (mVH/mVL), library-derived clones in human IgG1 null format were titrated (in μg/ml) in a direct binding ELISA against human, mouse and cyno CD47-Fc proteins (FIG. 3A-FIG. 3H). […] Clone TTP lost almost all binding function.
as §6

[12] = biological target: T5, human CD47-Fc; experiment: direct titration ELISA, FIG. 3
Method: as §7, §6

Binder	maximum MFI, fold over untransfected CHO-K1 [1] [fold]	maximum MFI, fold over untransfected CHO-K1 [2] [fold]	OD450 nm [3] [OD450 nm]	OD450 nm [4] [OD450 nm]	OD450 nm [5] [OD450 nm]	other results
B1	> 10	> 10	> 1.25	> 2	> 2	–
B2	–	–	–	–	–	OD450 nm [6]: > 2 OD450 nm; OD450 nm [7]: > 2 OD450 nm; OD450 nm [8]: > 2 OD450 nm
B3	> 10	> 10	> 1.25	> 2	> 2	–
B4	> 10	> 10	> 1.25	> 2	> 2	–
B5	–	–	–	–	–	binding result [9]: binds; binding result [10]: binds
B6	> 10	> 10	> 1.25	> 2	> 2	–
B7	–	–	–	–	–	binding result [9]: binds; binding result [10]: binds
B8	–	–	–	–	–	binding result [11]: binds; binding result [12]: binds
